Source: publication PMC11259845, “Potent anti-coronaviral activity of pateamines and new insights into their mode of action”

Assays:
Details in all cases: protein: recombinant; tags: N-terminal 6xHis, thrombin site
[1] = target: T1, eIF4A1(19-406) WT (human, UniProt P60842 19-406); experiment: thermal shift assay; PatA, AMP-PNP, 5 mM Mg2+; TSA: 5 uM eIF4A1(19-406), 50 uM RNA, 1 mM AMP-PNP, 100 uM inhibitor, 75 uM SYPRO Orange, 20 mM HEPES-KOH pH 7.5, 100 mM KCl, 5 mM MgCl2, 1 mM DTT, 10% glycerol; melt 10-95 C
[2] = target: T1, eIF4A1(19-406) WT; experiment: thermal shift assay; DMDAPatA, AMP-PNP, 5 mM Mg2+; TSA: 5 uM eIF4A1(19-406), 50 uM RNA, 1 mM AMP-PNP, 100 uM inhibitor, 75 uM SYPRO Orange, 20 mM HEPES-KOH pH 7.5, 100 mM KCl, 5 mM MgCl2, 1 mM DTT, 10% glycerol; melt 10-95 C
[3] = target: T1, eIF4A1(19-406) WT; experiment: thermal shift assay; silvestrol, AMP-PNP, 5 mM Mg2+; TSA: 5 uM eIF4A1(19-406), 50 uM RNA, 1 mM AMP-PNP, 100 uM inhibitor, 75 uM SYPRO Orange, 20 mM HEPES-KOH pH 7.5, 100 mM KCl, 5 mM MgCl2, 1 mM DTT, 10% glycerol; melt 10-95 C

T1 sequence (P60842 19-406): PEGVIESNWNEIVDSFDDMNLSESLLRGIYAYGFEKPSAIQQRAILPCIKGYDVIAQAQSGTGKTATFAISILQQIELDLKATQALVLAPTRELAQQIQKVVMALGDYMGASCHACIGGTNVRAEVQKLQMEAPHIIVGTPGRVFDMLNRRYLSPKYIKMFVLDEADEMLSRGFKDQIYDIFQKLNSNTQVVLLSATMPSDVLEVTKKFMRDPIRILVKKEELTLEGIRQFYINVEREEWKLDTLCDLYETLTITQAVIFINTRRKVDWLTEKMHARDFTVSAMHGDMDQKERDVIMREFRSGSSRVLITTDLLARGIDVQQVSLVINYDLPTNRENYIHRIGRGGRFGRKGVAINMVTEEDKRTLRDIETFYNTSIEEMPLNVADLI

Binder	binding result [1]	binding result [2]	binding result [3]
UGUGUGUGUG (ssRNA) [(UG)5]	binds	binds	
GAGAGAGAGA (ssRNA) [(GA)5]	binds		binds
AGAGAGAGAG (ssRNA) [(AG)5]	binds		binds
